From PMC11417404, “The molecular mechanism for TERRA recruitment and annealing to telomeres”

Target: RAD51 (UniProt Q06609 1-339)
Experiment: EMSA; 1 mM Mg2+, 1 mM ATP; highest affinity, unbound band gone at lowest RAD51 (1.5 uM); RAD51 EMSA: 50 mM Tris-HCl pH 7.5, 50 mM KCl, 1 mM MgCl2, 1 mM ATP, 37 C 10 min; 0.8% TBE agarose + 10 mM KCl at 4 C. Single molecule: T50 (10 mM Tris-HCl pH 7.5, 50 mM NaCl); imaging 10 mM Tris-HCl pH 7.5, 100 mM NaCl, 10% glycerol. Supplementary Table 2 kd values are for TERRA/DNA annealing to (protein-bound) duplex, not …
Conditions: protein: recombinant; label: Cy3; G4, single strand

Chain of RAD51 (Q06609 whole entry): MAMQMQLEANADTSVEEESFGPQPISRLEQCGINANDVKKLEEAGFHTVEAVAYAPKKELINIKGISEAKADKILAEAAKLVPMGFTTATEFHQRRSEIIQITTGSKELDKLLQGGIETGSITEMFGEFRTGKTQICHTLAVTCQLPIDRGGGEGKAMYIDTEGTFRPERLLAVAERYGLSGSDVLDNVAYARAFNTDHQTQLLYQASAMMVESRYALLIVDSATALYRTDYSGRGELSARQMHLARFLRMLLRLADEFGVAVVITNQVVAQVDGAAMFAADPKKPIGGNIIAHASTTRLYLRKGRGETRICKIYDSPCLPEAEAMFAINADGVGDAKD

B1: TERRA-18 (structured_RNA)
RNA: UGGCGACGGCAGCGAGGCUUAGGGUUAGGGUUAGGGUUAGGG
binding result: binds
